In assay [1] the test system is mouse models of LPS-induced ALI. The note with it: previous studies; cited from earlier work.
The next assay has as its target T1, recombinant hPrdx6 (Homo sapiens, UniProt P30041).
T1 sequence (P30041 1-224): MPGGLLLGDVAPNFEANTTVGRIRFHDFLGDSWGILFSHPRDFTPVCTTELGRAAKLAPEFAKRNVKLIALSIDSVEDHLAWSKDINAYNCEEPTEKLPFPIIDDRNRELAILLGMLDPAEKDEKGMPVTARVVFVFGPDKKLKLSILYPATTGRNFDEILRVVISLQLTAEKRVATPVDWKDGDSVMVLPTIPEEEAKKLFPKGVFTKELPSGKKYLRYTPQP
The experiment in a line: aiPLA2 activity of recombinant human Prdx6 in presence of peptide. The note with it: for aiPLA2 activity of recombinant hPrdx6: Table 1, hPrdx6 only (no peptide) 93.4; for aiPLA2 activity of human recombinant protein: Table 2, hPrdx6 only 92.0; for aiPLA2 activity of human recombinant Prdx6: Table 3, hPrdx6 only 99.91. The class given is biochemical.

For a further assay, the target named is T2, Prdx6 (Mus musculus, UniProt O08709).
T2 construct: from tissue; host or cells: mouse lung homogenate (wild type mice)
T2 sequence (O08709 1-224): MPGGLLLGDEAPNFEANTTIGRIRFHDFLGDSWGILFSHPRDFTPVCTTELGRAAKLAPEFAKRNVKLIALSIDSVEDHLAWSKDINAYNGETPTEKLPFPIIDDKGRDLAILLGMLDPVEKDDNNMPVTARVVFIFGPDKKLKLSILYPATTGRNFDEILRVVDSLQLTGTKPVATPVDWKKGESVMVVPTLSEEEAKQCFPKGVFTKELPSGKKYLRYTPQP
The experiment in a line: aiPLA2 (Prdx6-PLA2) activity of mouse lung homogenate after IT or IV injection of PIP. The class given is in vivo. Particulars: Table 6. As to the method:
FIG. 6: PIP-2 in liposomes was administered to mice either intratracheally (IT) or intravenously (IV) at 0 time. Lungs were harvested at intervals between 4 and 72 h after the PIP-2 administration, homogenized, and analyzed for Prdx6-PLA2 activity. PIP-2 is effective by either the IT or IV route with a calculated ½ time for recovery of ˜50 h. Results are mean+SE for N=3-4.
PIP-2 in liposomes injected IV or IT inhibits Prdx6 activity of the lung homogenate. Maximal inhibition was seen within 4 hours after administration of PIP-2. Recovery from inhibition began at ˜36 hours and was complete by 48 hours. Results are similar for PIP-1,2,4 (PIP-3 and -5 were not tested). […] Effectiveness requires liposomes for peptide delivery. Inhibition after IT or IV administration was similar.

A further assay concerns NOX2. The experiment in a line: ROS production (Amplex red) of isolated perfused mouse lung stimulated with angiotensin II. Particulars: mouse, ex_vivo. The assay is classed as in vivo. How it is done:
FIGS. 5A and 5B: PIP-2, incorporated within liposomes, was instilled intratracheally prior to lung isolation. FIG. 5A: Isolated lungs were perfused in a recirculating system with artificial medium. NOX2 activity was stimulated by addition of angiotensin II (Ang II). Amplex red along with horseradish peroxidase were added to the perfusate for detection of ROS production. Aliquots of perfusate were analyzed at intervals by spectrophotometry to determine oxidation of amplex red, indicating ROS production. Results are mean±SE for N=3-4. FIG. 5B: Mice were sacrificed at 6, 12, or 24 h after LPS administration ([…]) and lungs were perfused in situ for 15 min with saline solution containing a fluorophore (difluorofluorescein diacetate, DFFDA). Lungs then were homogenized and fluorescence of the lung homogenate was determined as an index of ROS production. Results for FIG. 5A & FIG. 5B are mean±SE for N=4. *P<0.05 vs corresponding LPS and LPS+PIP-2; § P<0.05 vs 12 h and 24 h LPS; ΔP<0.05 vs corresponding LPS.
FIG. 8: PLA2 inhibitory peptide (PIP-2) inhibits ROS production stimulated by angiotensin II (Ang II) in isolated perfused mouse lung. PIP-2 (2 μg/g body weight) was administered to intact wild type (WT) mice by the IV route. […] After 30 mins, lungs were isolated from anesthesized mice and perfused in a recirculating system with added Ang II ([…]) as a Nox2 activator and Amplex red plus horseradish peroxidase to detect perfusate ROS. WT basal lungs were not stimulated with Ang II. After a 15 min equilibration period (called zero time), aliquots were taken at 15 min intervals for analysis of fluorescence. Each plotted point represents the mean±SE for n=3. The lines were drawn by the least mean squares method. The mean rates of ROS […] calculated from the slope of each line are indicated in parentheses. *P<0.05 vs the other 3 slopes.
FIG. 10: Effect of liposome composition on delivery of PIP-2 to lungs after IV administration. […]
The effect of the PIPs on ROS production in control (untreated) lungs was determined in vitro with isolated perfused lungs. […] The basal rate of ROS production was evaluated with WT lungs that were perfused in the absence of AngII. […] Aliquots of perfusate were taken at 15 min intervals and analyzed by fluorescence for resorufin (λexcitation 568 nm, λemission 581 nm), the product of Amplex red oxidation. The rate of Amplex red oxidation was calculated and expressed as arbitrary fluorescence units (AFU) with normalization to mouse body wt. There was a low rate of Amplex red oxidation in the absence of HRP in the perfusate (˜7% of the AngII-stimulated fluorescence), indicating a non-ROS-mediated oxidation of the fluorophore; this value was subtracted to obtain the reported values.

In the case of `CCCCCCCCCCCCCCCCOCC(COCC(F)(F)F)OP(=O)(O)OC` (centres unmarked) [MJ33], the “protection in LPS-induced ALI” value in assay [1] was “protection”. Regarding “DEELQATLHDFRHQIL (Inhibitory peptide.) [PIP-1, 16 residue human peptide]”, the “aiPLA2 activity of recombinant hPrdx6” value with recombinant hPrdx6 is 45.0 nmol/min/mg prot. Besides, the “Prdx6-PLA2 activity of mouse lung homogenate” value was found to be 9.0 ± 0.2 nmol/hr/mg protein with Prdx6 (IT, lungs lavaged prior to assay, 0 post injection); 1.6 ± 0.1 nmol/hr/mg protein in the assay with Prdx6 (IT, lungs lavaged, 4 hr post injection); 1.6 ± 0.1 nmol/hr/mg protein with Prdx6 (IT, lungs lavaged, 12 hr post injection); 1.7 ± 0.2 nmol/hr/mg protein with Prdx6 (IT, lungs lavaged, 24 hr post injection); 2.9 ± 0.2 nmol/hr/mg protein in the assay with Prdx6 (IT, lungs lavaged, 48 hr post injection); 8.8 ± 0.3 nmol/hr/mg protein in the assay with Prdx6 (IV, 0 post injection). Further, the “Prdx6-PLA2 activity of mouse lung homogenate” value came to 1.4 nmol/hr/mg protein in the assay with Prdx6 (IV, 4 hr post injection); 1.5 nmol/hr/mg protein in the assay with Prdx6 (IV, 12 hr post injection); 1.8 ± 0.1 nmol/hr/mg protein with Prdx6 (IV, 24 hr post injection). DEELQTEL [SEQ ID NO: 18]: the “aiPLA2 activity of recombinant hPrdx6” value with recombinant hPrdx6 amounted to 93.6 nmol/min/mg prot.

Regarding “DEELQTELYEI (Inhibitory peptide.) [SEQ ID NO: 17]”, the “aiPLA2 activity of recombinant hPrdx6” value in the assay with recombinant hPrdx6 is 94.9 nmol/min/mg prot. The same measure, in the same setting: in the case of “DEELQTELYEIK (Inhibitory peptide.) [SEQ ID NO: 16]” it was 95.7 nmol/min/mg prot.

Consider “DEELQTELYEIKHQ (Inhibitory peptide.) [SEQ ID NO: 15]”, for which the “aiPLA2 activity of recombinant hPrdx6” value with recombinant hPrdx6 was found to be 102 nmol/min/mg prot. Consider “DEELQTELYEIKHQIL (Inhibitory peptide.) [PIP-3, 16 residue rat, mouse peptide]”, for which the “aiPLA2 activity of recombinant hPrdx6” value with recombinant hPrdx6 was determined as 32.0 nmol/min/mg prot; with recombinant hPrdx6 (listed as SEQ ID NO: 9), 20.1 nmol/min/mg prot. In the assay with recombinant hPrdx6, the “aiPLA2 activity of human recombinant protein” value stood at 32.0 nmol/min/mg prot. Regarding “ELQTELYEIKHQIL (Inhibitory peptide.) [SEQ ID NO: 10]”, the “aiPLA2 activity of recombinant hPrdx6” value with recombinant hPrdx6 amounted to 33.2 nmol/min/mg prot. For “ELYEIKHQI (Inhibitory peptide.) [SEQ ID NO: 22]”, in the assay with recombinant hPrdx6, the “aiPLA2 activity of human recombinant protein” value turned out to be 93.5 nmol/min/mg prot. In the case of “ELYEIKHQIL (Inhibitory peptide.) [SEQ ID NO: 12]”, in the assay with recombinant hPrdx6, the “aiPLA2 activity of recombinant hPrdx6” value was 28.6 nmol/min/mg prot. For the compound “IKHQIL (DEELQTELYEIKHQ; Inhibitory peptide.) [SEQ ID NO: 14]”, the “aiPLA2 activity of recombinant hPrdx6” value with recombinant hPrdx6 was determined as 97.1 nmol/min/mg prot.

On to LFKLEHQIL [SN023], for which the “aiPLA2 activity of human recombinant Prdx6” value in the assay with recombinant hPrdx6 was 97.95 nmol/min/mg prot. Same read-out and setting: in the case of LHDFRDQIL [SN024] it was 102.04 nmol/min/mg prot; in that of LHDFRHNIL [SN026], 98.97 nmol/min/mg prot. Regarding LHDFRHQI [SEQ ID NO: 21], the “aiPLA2 activity of human recombinant protein” value in the assay with recombinant hPrdx6 is listed as 93.6 nmol/min/mg prot. Consider “LHDFRHQLL (LHDFRHQTL; Inhibitory peptide.) [SN028]”, for which the “aiPLA2 activity of human recombinant Prdx6” value in the assay with recombinant hPrdx6 turned out to be 102.45 nmol/min/mg prot. Same read-out and setting: the result for LHDFRPQIL [SN025] reads 101.34 nmol/min/mg prot.

In the case of LHEFKHQIL [SN022], the “aiPLA2 activity of human recombinant Prdx6” value with recombinant hPrdx6 is given as 99.42 nmol/min/mg prot. On the same count and under the same terms, in the case of LKIEYHQIL [SN019] it was 97.67 nmol/min/mg prot. Same read-out and setting: the result for LRFDHHQIL [SN020] reads 98.97 nmol/min/mg prot. In the case of LYDIRHQIL (Inhibitory peptide.) [PIP-5], the “aiPLA2 activity of human recombinant Prdx6” value in the assay with recombinant hPrdx6 was determined as 29.74 nmol/min/mg prot. For the same compound, the “ROS production by AngII-activated NOX2 in the isolated mouse lung” value in the assay on NOX2 is “inhibit ROS production”.

As for LYEIKHQI [SEQ ID NO: 23], in the assay with recombinant hPrdx6, the “aiPLA2 activity of human recombinant protein” value is 92.1 nmol/min/mg prot.

Turning to “QTELYEIKHQIL (Inhibitory peptide.) [SEQ ID NO: 11]”, the “aiPLA2 activity of recombinant hPrdx6” value with recombinant hPrdx6 turned out to be 31.5 nmol/min/mg prot. Regarding “TLHDFRHQI (Inhibitory peptide.) [SEQ ID NO: 20]”, in the assay with recombinant hPrdx6, the “aiPLA2 activity of human recombinant protein” value is given as 89.6 nmol/min/mg prot. On the same count and under the same terms, in the case of “TLHDFRHQIL (Inhibitory peptide.) [SEQ ID NO: 19]” it was 31.5 nmol/min/mg prot. As to “YEIKHQIL (Inhibitory peptide.) [SEQ ID NO: 13]”, in the assay with recombinant hPrdx6, the “aiPLA2 activity of recombinant hPrdx6” value is reported as 94.4 nmol/min/mg prot.

Source of the values: patent publication US12070483B2, “Compositions and methods for treatment of acute lung injury” (THE TRUSTEES OF THE UNIVERSITY OF PENNSYLVANIA, priority 2018, dated 2024).
